Assays:
[1] = biological target: T1, HCoV-HKU1 prefusion-stabilized spike (S) protein / S ectodomain trimer (human coronavirus HKU1, UniProt Q5MQD0 13-1300)
T1 sequence: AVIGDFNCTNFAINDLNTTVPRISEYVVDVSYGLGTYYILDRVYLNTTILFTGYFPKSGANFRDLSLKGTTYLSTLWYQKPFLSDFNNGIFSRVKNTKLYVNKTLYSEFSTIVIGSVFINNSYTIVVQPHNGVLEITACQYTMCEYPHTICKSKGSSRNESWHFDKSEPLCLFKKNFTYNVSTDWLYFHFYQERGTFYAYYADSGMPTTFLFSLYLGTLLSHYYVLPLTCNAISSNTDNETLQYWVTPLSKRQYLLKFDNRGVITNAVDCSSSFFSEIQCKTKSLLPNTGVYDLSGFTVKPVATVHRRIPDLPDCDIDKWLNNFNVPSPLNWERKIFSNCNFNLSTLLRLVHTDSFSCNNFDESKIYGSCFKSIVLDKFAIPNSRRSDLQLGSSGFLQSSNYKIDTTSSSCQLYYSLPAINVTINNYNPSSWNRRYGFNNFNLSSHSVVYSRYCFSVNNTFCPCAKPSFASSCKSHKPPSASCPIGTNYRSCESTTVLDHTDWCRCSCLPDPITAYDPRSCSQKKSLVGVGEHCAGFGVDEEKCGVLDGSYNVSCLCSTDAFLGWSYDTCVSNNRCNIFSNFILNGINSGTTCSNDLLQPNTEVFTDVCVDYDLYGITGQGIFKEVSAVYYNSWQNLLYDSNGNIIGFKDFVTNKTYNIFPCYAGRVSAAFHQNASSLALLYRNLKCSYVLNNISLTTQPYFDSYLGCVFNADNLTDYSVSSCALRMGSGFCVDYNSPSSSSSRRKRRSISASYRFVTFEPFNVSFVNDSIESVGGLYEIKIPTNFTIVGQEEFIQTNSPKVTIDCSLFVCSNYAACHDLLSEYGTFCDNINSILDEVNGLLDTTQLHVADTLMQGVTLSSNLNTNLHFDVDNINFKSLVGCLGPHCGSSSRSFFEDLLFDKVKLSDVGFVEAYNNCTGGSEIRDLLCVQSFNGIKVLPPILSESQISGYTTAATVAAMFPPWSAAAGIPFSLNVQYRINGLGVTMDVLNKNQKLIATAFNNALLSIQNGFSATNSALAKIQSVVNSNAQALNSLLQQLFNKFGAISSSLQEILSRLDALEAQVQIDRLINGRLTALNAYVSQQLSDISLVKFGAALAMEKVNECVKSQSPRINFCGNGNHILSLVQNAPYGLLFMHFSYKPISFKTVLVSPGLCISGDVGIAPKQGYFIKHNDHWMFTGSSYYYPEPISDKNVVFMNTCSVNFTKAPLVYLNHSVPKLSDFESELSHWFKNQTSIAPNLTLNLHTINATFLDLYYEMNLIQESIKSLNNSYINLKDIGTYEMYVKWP

[2] = biological target: T2, HCoV-OC43 prefusion-stabilized spike (S) protein / S ectodomain trimer (human coronavirus OC43, UniProt P36334 14-1297)
T2 sequence: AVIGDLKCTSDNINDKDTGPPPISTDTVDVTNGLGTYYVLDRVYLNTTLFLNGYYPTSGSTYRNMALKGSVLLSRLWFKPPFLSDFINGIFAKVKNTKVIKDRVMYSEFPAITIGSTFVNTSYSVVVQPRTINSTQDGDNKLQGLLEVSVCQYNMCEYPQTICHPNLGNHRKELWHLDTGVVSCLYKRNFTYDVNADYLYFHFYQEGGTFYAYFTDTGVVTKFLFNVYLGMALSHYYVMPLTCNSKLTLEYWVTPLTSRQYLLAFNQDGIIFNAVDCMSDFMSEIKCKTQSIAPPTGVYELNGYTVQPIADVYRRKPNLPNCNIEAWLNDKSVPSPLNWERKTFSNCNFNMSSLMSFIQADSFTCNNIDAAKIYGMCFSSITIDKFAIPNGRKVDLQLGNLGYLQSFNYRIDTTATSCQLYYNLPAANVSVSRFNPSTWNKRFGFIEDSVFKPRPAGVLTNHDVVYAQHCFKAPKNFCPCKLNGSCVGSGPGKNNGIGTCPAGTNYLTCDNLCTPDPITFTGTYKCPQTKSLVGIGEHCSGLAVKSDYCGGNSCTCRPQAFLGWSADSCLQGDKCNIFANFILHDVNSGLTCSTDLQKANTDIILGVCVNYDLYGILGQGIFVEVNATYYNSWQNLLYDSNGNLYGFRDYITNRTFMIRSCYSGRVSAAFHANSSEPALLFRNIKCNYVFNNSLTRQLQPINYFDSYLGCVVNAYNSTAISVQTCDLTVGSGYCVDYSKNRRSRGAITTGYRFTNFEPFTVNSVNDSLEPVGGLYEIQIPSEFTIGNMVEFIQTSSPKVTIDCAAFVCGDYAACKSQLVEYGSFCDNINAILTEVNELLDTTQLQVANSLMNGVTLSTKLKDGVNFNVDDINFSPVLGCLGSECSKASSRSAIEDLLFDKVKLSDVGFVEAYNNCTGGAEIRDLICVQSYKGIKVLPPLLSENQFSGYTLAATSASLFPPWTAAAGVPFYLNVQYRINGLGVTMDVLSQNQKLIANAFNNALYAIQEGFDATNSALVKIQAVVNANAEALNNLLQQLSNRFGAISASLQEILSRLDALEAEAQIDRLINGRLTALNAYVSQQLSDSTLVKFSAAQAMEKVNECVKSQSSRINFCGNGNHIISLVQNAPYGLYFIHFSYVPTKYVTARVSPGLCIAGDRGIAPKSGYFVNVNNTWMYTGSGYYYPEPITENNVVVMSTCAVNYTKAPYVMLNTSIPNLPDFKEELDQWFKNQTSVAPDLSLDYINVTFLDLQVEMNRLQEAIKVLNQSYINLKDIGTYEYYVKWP

B1: antibody S2P6 (antibody 420 1 1), human monoclonal antibody expressed as recombinant human IgG1 (antibody, V domains shown)
VH: EVQLVQSGAEVKKPGASVKVSCKASGYTFTSQYMHWVRQAPGQGLEWIGIINPSGVHTSYAQKFQGRVTLTRDTSTSTLYMELSSLRSEDTAVYYCARGSPKGAFDYWGQGTLVTVSS
VL: not shown
Binder B1 has a Kd [1] of 2.44 nM and a Kd [2] of 0.372 nM.
